# From IntAct's records for PubMed 22579247
# B1: Abscisic acid receptor PYL3 (Arabidopsis thaliana (Mouse-ear cress)), Q9SSM7 (parent)
# chain: MNLAPIHDPSSSSTTTTSSSTPYGLTKDEFSTLDSIIRTHHTFPRSPNTCTSLIAHRVDAPAHAIWRFVRDFANPNKYKHFIKSCTIRVNGNGIKEIKVGTIREVSVVSGLPASTSVEILEVLDEEKRILSFRVLGGEHRLNNYRSVTSVNEFVVLEKDKKKRVYSVVLESYIVDIPQGNTEEDTRMFVDTVVKSNLQNLAVISTASPT
# Variants of: B1
# Settings: with HAB1, Q9CAJ0
row,effect of a mutation on the interaction,Variant
1,increasing interaction strength,S195L
2,increasing interaction strength,F81A;V202A;I203A
